According to US20150056222A1 (Regeneron, published 2015):

Key:
[1] = biological target: T1, human prolactin receptor (PRLR), cell surface-expressed (human, UniProt P16471 25-622); experiment: cell-based or functional assay
T1 sequence: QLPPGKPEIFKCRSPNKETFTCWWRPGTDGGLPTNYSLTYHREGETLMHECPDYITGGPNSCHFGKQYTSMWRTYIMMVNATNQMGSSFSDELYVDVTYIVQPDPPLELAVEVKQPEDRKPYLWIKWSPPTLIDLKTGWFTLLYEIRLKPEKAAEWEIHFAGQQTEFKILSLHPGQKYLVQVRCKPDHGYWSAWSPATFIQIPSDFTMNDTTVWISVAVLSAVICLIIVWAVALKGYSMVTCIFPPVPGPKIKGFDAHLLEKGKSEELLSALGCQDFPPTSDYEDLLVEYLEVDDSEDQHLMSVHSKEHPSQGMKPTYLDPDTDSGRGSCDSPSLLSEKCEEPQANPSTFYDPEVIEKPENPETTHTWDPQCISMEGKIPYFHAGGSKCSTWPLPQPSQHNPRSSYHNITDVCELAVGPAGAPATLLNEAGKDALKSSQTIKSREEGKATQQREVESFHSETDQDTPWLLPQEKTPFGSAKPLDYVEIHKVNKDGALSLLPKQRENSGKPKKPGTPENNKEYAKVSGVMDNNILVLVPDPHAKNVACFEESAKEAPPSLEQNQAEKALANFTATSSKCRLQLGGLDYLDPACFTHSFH

[2] = biological target: T1, human prolactin receptor (PRLR), cell …; experiment: cell-based or functional assay; remark: listed apart in the source
[3] = biological target: T1, human prolactin receptor (PRLR), cell …; experiment: cell-based or functional assay; remark: listed apart in the source
[4] = biological target: T1, human prolactin receptor (PRLR), cell …; experiment: cell-based or functional assay; remark: listed apart in the source
IL-6R = biological target: T2, IL-6R (human, UniProt P08887 20-468); experiment: FACS on KG-1 cells (endogenous IL-6R), PE anti-human secondary, MFI above isotype control
T2 construct: whole, on cells
T2 sequence (looked up): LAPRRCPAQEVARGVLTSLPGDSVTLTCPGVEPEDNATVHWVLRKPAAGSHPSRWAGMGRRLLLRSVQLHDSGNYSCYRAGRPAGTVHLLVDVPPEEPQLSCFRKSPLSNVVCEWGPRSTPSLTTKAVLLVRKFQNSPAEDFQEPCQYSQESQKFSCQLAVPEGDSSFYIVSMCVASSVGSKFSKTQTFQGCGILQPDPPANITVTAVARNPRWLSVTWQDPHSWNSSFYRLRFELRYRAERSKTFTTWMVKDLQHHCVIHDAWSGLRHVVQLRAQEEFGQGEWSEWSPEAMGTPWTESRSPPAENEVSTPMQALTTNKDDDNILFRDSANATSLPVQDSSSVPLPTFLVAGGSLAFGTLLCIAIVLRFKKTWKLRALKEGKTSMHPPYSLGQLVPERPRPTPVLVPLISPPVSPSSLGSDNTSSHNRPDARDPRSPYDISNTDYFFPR

MFI fold over background (IL-6R) [fold over background] | Binder | IC50, cell viability, 293/PRLR cells [1] [nM] | IC50, cell viability, PC3/PRLR cells [2] [nM] | IC50, cell viability, MCF7 cells [3] [nM] | IC50, cell viability, T47D cells [3] [nM] | IC50, cell viability, T47D/ErbB2 cells [3] [nM] | IC50, cell viability, MCF7/PRLR cells [4] [nM] | IC50, cell viability, MCF/PRLR + ErbB2 cells [4] [nM] | IC50, cell viability, NCI-N87/PRLR cells [4] [nM]
– | H1H6953N-SMCC-DM1 (antibody, human IgG1, V domains shown, DM1 conjugated through an SMCC linker; attachment residues not stated) VH: EVQLLESGGGLVQPGGTLRLSCAASGFTFSAYAMSWVRQAPGKGLEWVSSINVRAGDTYYADSVKGRFTISRDNSKNTLFLLMNSLRAEDTAAYYCAKARYSSNWGFDFWGQGTLVTVSS VL: DIVMTQSPDSLTVSLGARTTINCQSSQTILHSSNNHNYLAWYQQKPGLPPKLLIYWSSTRESGVPDRFSGSGSGTDFTLTISSLQAEDVAIYYCQQYSNTPYTFGQGTKLEIN | 0.43 | 0.68 | 82 | 1.3 | 2.4 | 0.33 | 0.33 | 2.9
7 | VV6A9-5 (antibody, V domains shown) VH: EVQLVESGGGLVQPGRSLRLSCAASGFTFDDYALHWVRQAPGKGLEWVSGVSWNGGRIGYADSVKGRFTISRDNAKNSLFLQMNSLRVEDTALYYCAKGRDAFDIWGQGTLVTVSS VL: DIQMTQSPSSVSASVGDRVTITCRASQGISSWLAWYQQKPGKAPKLLIYAASSLQSGVPSRFSGSGSGTDFTLTISSLQPEDFATYYCQHAYSFPYTFGQGTKLEIK | – | – | – | – | – | – | – | –
